Conditions in all cases: both partners purified
The target of one test is T1, DIP-β isoform G (Drosophila melanogaster).
T1 construct: has an 11 amino acid deletion in the first Ig domain relative to DIP-β-C; Monomeric protein was used for SPR; also called DIP-β-G; not shown: His6, C-terminal, kept
T1 chain: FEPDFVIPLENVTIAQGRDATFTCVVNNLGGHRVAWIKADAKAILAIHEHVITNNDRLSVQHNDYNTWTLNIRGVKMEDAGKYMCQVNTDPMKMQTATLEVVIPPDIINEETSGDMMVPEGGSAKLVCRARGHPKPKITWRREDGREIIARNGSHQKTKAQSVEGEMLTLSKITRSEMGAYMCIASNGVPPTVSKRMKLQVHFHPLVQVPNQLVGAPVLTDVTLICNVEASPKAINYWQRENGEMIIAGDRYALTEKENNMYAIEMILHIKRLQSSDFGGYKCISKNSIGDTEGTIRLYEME
In words: SPR; Biacore T100, CM4 chip; DIPs immobilised by amine coupling (700-900 RU), monomeric Dpr analytes in 3-fold dilution series (0.012 to 9, 27 or 81 µM); 25 °C; 10 mM Tris-HCl pH 7.2, 150 mM NaCl, 1 mM EDTA, 1 mg/mL BSA, 0.01% Tween-20; equilibrium responses fit to a 1:1 model. Background: SPR reads the build-up and loss of mass on a sensor chip optically.

A further test concerns the target T2, DIP-β isoform C (Drosophila melanogaster).
T2 construct: Monomeric protein was used for SPR; also called DIP-β-C
The test is described as above.

The target in test [1] is T3, DIP-β-G recombinant protein for SPR (printed sequence) (Drosophila melanogaster).
T3 construct: DIP-β isoform G, Drosophila melanogaster; Monomeric protein was used for SPR; immobilised by amine coupling; also called Isoform G of DIP-β; not shown: His6, C-terminal, kept
T3 chain: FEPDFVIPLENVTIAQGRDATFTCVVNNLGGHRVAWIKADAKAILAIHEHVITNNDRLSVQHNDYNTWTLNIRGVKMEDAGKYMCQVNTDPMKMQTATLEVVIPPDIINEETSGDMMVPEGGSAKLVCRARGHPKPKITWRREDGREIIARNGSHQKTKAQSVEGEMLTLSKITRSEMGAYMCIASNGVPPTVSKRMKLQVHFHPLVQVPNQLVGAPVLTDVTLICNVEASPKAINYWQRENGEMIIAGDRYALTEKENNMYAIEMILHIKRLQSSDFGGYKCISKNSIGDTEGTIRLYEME
Nature of the test: SPR; Biacore T100, CM4 chip; DIPs immobilised by amine coupling (700-900 RU), monomeric Dpr analytes in 3-fold dilution series; 25 °C; 10 mM Tris-HCl pH 7.2, 150 mM NaCl, 1 mM EDTA, 1 mg/mL BSA, 0.01% Tween-20; equilibrium responses fit to a 1:1 model.

T2 sequence (main, as listed by the source): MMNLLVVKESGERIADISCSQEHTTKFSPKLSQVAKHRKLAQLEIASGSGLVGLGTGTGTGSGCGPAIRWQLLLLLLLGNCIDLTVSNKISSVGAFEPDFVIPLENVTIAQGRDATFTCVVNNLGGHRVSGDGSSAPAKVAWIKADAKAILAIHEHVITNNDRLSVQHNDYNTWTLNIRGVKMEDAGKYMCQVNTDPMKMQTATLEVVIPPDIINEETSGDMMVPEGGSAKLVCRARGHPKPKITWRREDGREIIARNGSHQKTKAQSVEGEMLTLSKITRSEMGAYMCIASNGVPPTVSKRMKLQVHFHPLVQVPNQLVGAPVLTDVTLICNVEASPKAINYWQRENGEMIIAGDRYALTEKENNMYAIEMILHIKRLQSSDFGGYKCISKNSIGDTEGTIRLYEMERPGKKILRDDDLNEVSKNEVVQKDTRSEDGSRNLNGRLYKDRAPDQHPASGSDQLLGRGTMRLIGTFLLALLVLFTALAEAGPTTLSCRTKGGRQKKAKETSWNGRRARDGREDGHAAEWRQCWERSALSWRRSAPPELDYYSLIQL

B1: Dpr6 (natural protein)
chain: WMEPYFDPSTPRNVTALMGKSAYLSCRVRNLANKTVSWIRHRDIHILTVGSYTYTSDQRFQATHHQDTEDWTLQIKWAQKRDAGMYECQISTQPVRSYFVRLNVVVPTATILGGPDLHVDKGSTINLTCTVKFSPEPPAYIFWYHHEEVINYDSSRGGVSVITEKGDVTTSFLLIQNADLADSGKYSCAPSNADVASVRVHVLNGE
As for B1, the Kd in the test with DIP-β isoform G amounted to 15.2 µM; in the test with DIP-β isoform C, 22 µM.

B2: Dpr10-A recombinant protein for SPR (printed sequence) (domain or fragment, Drosophila melanogaster)
chain: WNEPYFDLTMPRNITSLVGKSAYLGCRVKHLGNKTVAWIRHRDLHILTVGTYTYTTDQRFQTSYHRDIDEWTLQIKWAQQRDAGVYECQISTQPVRSYSVNLNIVDLIDAETSDIMQQYYNDDAFYIAENRVYQSSNDEFAGMFGPIQTVAVPTATILGGPDLYVDKGSTINLTCIIKFSPEPPTHIFWYHQDKVLSEETSGGRLKFKTIKSEETKSILLIYDADLLHSGKYSCYPSNTEIASIRVHVLQGE
notes: Dpr10 isoform A, Drosophila melanogaster; Monomeric protein was used for SPR; analyte; not shown: His6, C-terminal, kept
For the molecule B2, in test [1], the Kd was found to be 5.76 µM.

B3: Dpr21 (natural protein)
chain: DRGPYFDTSATKNVTSLVGITGHLNCRIKNLGNKTVSWIRHRDLHLLTVSESTYTSDQRFTSIYNKQTGDWSLQIKFPQLRDSGIYECQVSTTPPVGYTMVFSVVEPITSILGGPEIYIDLGSTVNLTCVIKHLPDPPISVQWNHNNQEINYDSPRGGVSVITEKGDITTSYLLIQRASIADSGQYTCLPSNANSKSVNVHILKGD
In the case of B3, the Kd with DIP-β isoform G was determined as 5.05 µM; with DIP-β isoform C, 1.55 µM.

B4: Dpr15 (natural protein)
chain: TLKPPPTIDDYQTIISQAGTHAYLPCNVKQLVKKPISWLRMRDGHILTVDQTTFIADQRFQSVFSPNPERWSLQIKYVQLKDEGTYECQVSTEPKASAIVHLRIVEPKTELIGESTRHVKAGSQVKLRCIISQALEPPLFINWFYNQKQIYLHNRRGWRTEIERIDLPAEVPTTSTTTTTTTTTASTTTTTTSTTPATPSTTATGSTEGATSSETLNGLVTITRSYILDAISQNDVSELGAAAGVAVATETSTAQLLTEVEATSSTSGTSTGAGLLASTSAAYAAGAAAGITTAATGDSAATAATTSAWLTTMDAEAATTAATTTTTMLPSSSFIKQITTASLIIPAVVKLDSGNYTCSPSNSAPRTIVLHVLNGE
As for B4, the results for the dissociation constant Kd with DIP-β isoform G and in the test with DIP-β isoform C were 159 µM and 25.3 µM, respectively.

By Kd is commonly meant the concentration at which binding is half-saturated.
